# Measurements reported in the supplement of paper PMC10724198.
# ± gives the standard deviation of the averaged measurements.
# Tested on: Saccharomyces cerevisiae
# Experiment: protein stability index of tFT-peptide fusion (C-terminal peptide) (PSI (0-1 scale)); higher = more stable (slower turnover)
# Settings: genetic background: wild type; temperature: 30 C
# Method: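 Multiplexed protein stability (MPS) profiling in S. cerevisiae. Random 12-aa peptides (tFT-X12 library) are fused to the C-terminus of a sfGFP-mCherry tandem fluorescent timer, after mCherry and a GGGS linker. Cells are FACS-sorted into 8 mCherry/sfGFP bins and deep-sequenced. The protein stability index (PSI) is the read-weighted bin average, scaled from 0 (unstable) to 1 (stable). Only peptides with >10 reads are reported; cells were grown at 30 °C in SC-His with glucose.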
# 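Further: PSI is a weighted mean of sequencing reads over stability bins, variants kept only with over 10 reads, mCherry proximal and sfGFP distal, peptide attached via GGGS linker.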
row,Sequence,protein stability index
1,EVDGISTRAAVC,0.63 ± 0.083
2,EVDKKYRNRKRK,0.744 ± 0.019
3,EVFVVHLLGEAS,0.574 ± 0.064
4,EVGGGVGGRRLM,0.636 ± 0.0099
5,EVGGSVGTIVGS,0.702 ± 0.11
6,EVLAVKLYSGIA,0.648 ± 0.044
7,EVLQGNHHPRPE,0.716 ± 0.019
8,EVSGRCRRPDDQ,0.679 ± 0.041
9,EVVCLGKTTLKR,0.692 ± 0.041
10,EVVRWGCVDLWI,0.717 ± 0.051
11,EWACGRAGLKVV,0.491 ± 0.018
12,EYCIYYTQFGSF,0.65 ± 0.1
13,EYEDNRLDQHKV,0.725 ± 0.04
14,FAFVCLASILGS,0.5313 ± 0.0017
15,FAPAWQTRLGCP,0.7514 ± 0.0026
16,FAPPASPPARPP,0.672 ± 0.016
17,FAVLGGGVGGGW,0.7077 ± 0.0032
18,FCALWASFFGVS,0.715 ± 0.048
19,FCCFGGSFFSLR,0.715 ± 0.02
20,FCCSYLSRGDFL,0.702 ± 0.023
21,FCDFSPPARSFP,0.76 ± 0.072
22,FCGDFGGAYGLW,0.706 ± 0.047
23,FCGFTSLCVGDL,0.731 ± 0.039
24,FCLGMRKHSSPL,0.731 ± 0.02
25,FCVFFSGLCCWV,0.55 ± 0.022
26,FCWCARPLSWYN,0.615 ± 0.027

row,Sequence,protein stability index
1,FDACPAPFGLVV,0.67033 ± 0.0004
2,FDRAVRPSCLLL,0.6892 ± 0.0062
3,FEDWMQGLGKWV,0.792 ± 0.054
4,FELTLLSPVCFS,0.579 ± 0.0089
5,FESTCSGLLYNS,0.694 ± 0.039
6,FFAGASRFSSWS,0.752 ± 0.029
7,FFCLWFLSFLRF,0.572 ± 0.01
8,FFFLPILKSPSR,0.714 ± 0.058
9,FFGNGSGPWVLV,0.6597 ± 0.0018
10,FFGWYFCFSGVS,0.598 ± 0.023
11,FFIGFGGVAGGG,0.695 ± 0.01
12,FFLGGGVGLVLV,0.528 ± 0.053
13,FFLPLAYSSGSN,0.659 ± 0.043
14,FFLPSLFSVLSF,0.53 ± 0.04
15,FFLRLCTPPYFH,0.651 ± 0.0097
16,FFPITAWSGWDG,0.669 ± 0.093
17,FFPPAPLTSLLP,0.697 ± 0.057
18,FFPPFLFSLFRT,0.5621 ± 0.0007
19,FFQSSLLFCPWR,0.712 ± 0.011
20,FFRWDSKHDILV,0.732 ± 0.064
21,FFRYWLRWGWGV,0.695 ± 0.039
22,FFSFVVPCFFFC,0.513 ± 0.022
23,FFSSSLMRLGCF,0.6343 ± 0.00098
24,FFSWFGCSCYAR,0.779 ± 0.023
25,FFTVRLRGGRDC,0.649 ± 0.024
26,FFVGAGATEGLG,0.735 ± 0.021

row,Sequence,protein stability index
1,FFVGAGVTEGLG,0.692 ± 0.033
2,FGFGYAVSFLVG,0.6 ± 0.081
3,FGPDFCVRSHLS,0.719 ± 0.03
4,FGRGLCPHRLWI,0.74 ± 0.039
5,FGRSHPFWVVDV,0.697 ± 0.025
6,FGSRTFVTIAAG,0.57 ± 0.056
7,FGVSLWPGFLYL,0.587 ± 0.0065
8,FGVTLGYFSSVE,0.656 ± 0.017
9,FGVVLAGAGWGG,0.675 ± 0.095
10,FGVVLVGAGWGG,0.67 ± 0.035
11,FGWVGYGCGVWW,0.741 ± 0.12
12,FHFLNLLIPFPR,0.737 ± 0.061
13,FHVVPLTSPPPV,0.755 ± 0.03
14,FHYSRSCVLEQL,0.698 ± 0.074
15,FICAGPLGVCSC,0.498 ± 0.011
16,FICGFRYHTVYR,0.652 ± 0.043
17,FIKRINSYTGWI,0.663 ± 0.062
18,FIQFGYVSSVIQ,0.722 ± 0.031
19,FISKHHPLVPPS,0.719 ± 0.041
20,FKQLKKKKKNRR,0.741 ± 0.091
21,FLARPIACPRRV,0.701 ± 0.008
22,FLCNSRSICGDG,0.6774 ± 0.0033
23,FLCRLILFSTPP,0.602 ± 0.021
24,FLFASYFLENQR,0.766 ± 0.13
25,FLFRLWGLLAEG,0.583 ± 0.082
26,FLGCFIPLPCTP,0.645 ± 0.012

row,Sequence,protein stability index
1,FLGFPVVGVFGS,0.735 ± 0.031
2,FLGRFLTGALWV,0.758 ± 0.12
3,FLLCFLRIPSCP,0.5218 ± 0.0042
4,FLLCISGFSSFL,0.592 ± 0.0077
5,FLLDRSSADHSL,0.684 ± 0.1
6,FLLFSSFYFCFP,0.497 ± 0.062
7,FLLPPAPRPAPP,0.76 ± 0.086
8,FLPFFFCLPSSL,0.628 ± 0.014
9,FLPRLSASSSLC,0.728 ± 0.015
10,FLQRSLTNMNSL,0.671 ± 0.00095
11,FLRGLCGKMSKG,0.673 ± 0.0081
12,FLRKHVLRLRPP,0.594 ± 0.03
13,FLSCLLERSWSL,0.79 ± 0.044
14,FLSLFCFFLPFF,0.646 ± 0.02
15,FLSPSLLSLSSP,0.681 ± 0.025
16,FLSSWFCYSSDL,0.735 ± 0.07
17,FLSWGSGVFGLL,0.671 ± 0.056
18,FLSWTAYRPSST,0.682 ± 0.0075
19,FLVWGLGWLCCV,0.594 ± 0.025
20,FNISVGPATRRV,0.665 ± 0.045
21,FNPPPLLLPPPP,0.639 ± 0.013
22,FPILLASRPSSP,0.662 ± 0.046
23,FPISPSQSQSLP,0.724 ± 0.076
24,FPIWYPSSSFPR,0.711 ± 0.013
25,FPLPHPCPPPPP,0.694 ± 0.017
26,FPLSPPAPPLTP,0.702 ± 0.013

row,Sequence,protein stability index
1,FPPAHPVHFSPP,0.717 ± 0.047
2,FPPCCSSFFGFF,0.752 ± 0.024
3,FPPCSFLARPFL,0.669 ± 0.019
4,FPPLLFSSPPLP,0.683 ± 0.018
5,FPPLSHLPPGLY,0.758 ± 0.075
6,FPPPPPPLPPGS,0.687 ± 0.073
7,FPPPPPSFSQPL,0.741 ± 0.034
8,FPPPPPSRSRPV,0.708 ± 0.032
9,FPPPRYPRRPTA,0.682 ± 0.018
10,FPRRPHVESHIR,0.7359 ± 0.0042
11,FPSSALPPRLSL,0.7409 ± 0.0072
12,FPSSSHLPWLLI,0.633 ± 0.014
13,FPTIGLSCSFPH,0.676 ± 0.042
14,FQGRLILCIETR,0.5323 ± 0.00074
15,FQWVLDGYRCWD,0.694 ± 0.098
16,FRAPYWCSRVFG,0.715 ± 0.095
17,FRGALFLLSSRV,0.571
18,FRGGCDRIRYRM,0.696 ± 0.0089
19,FRGGRTEWEKNV,0.719 ± 0.058
20,FRGSVRLIGFAQ,0.666 ± 0.0081
21,FRHPGSAGPPVA,0.713 ± 0.011
22,FRLLHLPALSCP,0.565 ± 0.013
23,FRLLSTINSCCV,0.612 ± 0.036
24,FRLYALAPHSPG,0.67 ± 0.027
25,FRPPFRSAPLSP,0.679 ± 0.051
26,FRQWCTEVYIEV,0.531 ± 0.031

row,Sequence,protein stability index
1,FRRSLILPLPPT,0.6814 ± 0.0037
2,FRRYGKEAVDKD,0.696 ± 0.011
3,FRSFALFGNSFL,0.704 ± 0.0053
4,FRYSSLPRPLVF,0.5893 ± 0.0029
5,FSGISVMCLFSG,0.687 ± 0.12
6,FSHLYCSLVTTD,0.681 ± 0.067
7,FSLFGVGQITFL,0.683 ± 0.056
8,FSLFSSPPSLFC,0.672 ± 0.03
9,FSLPLCAITGPQ,0.702 ± 0.056
10,FSPALPPSHSPP,0.676 ± 0.057
11,FSPAPPLLLHPS,0.714 ± 0.043
12,FSPASCPILPPL,0.672 ± 0.014
13,FSQNFVSTGFRL,0.702 ± 0.028
14,FSRPPPFPLFSS,0.69 ± 0.03
15,FSSCFLVSPSLF,0.648 ± 0.016
16,FSSFVLLFFSFP,0.541 ± 0.011
17,FSSPLLLFHLPV,0.663 ± 0.04
18,FSSSASNSSWPY,0.721 ± 0.016
19,FSTLLVSPLQAS,0.641 ± 0.022
20,FSTVIDFLAYLF,0.636 ± 0.036
21,FSWDRIKQCSSV,0.7094 ± 0.0035
22,FTFARPVCLFFG,0.587 ± 0.003
23,FTHVKEVNTGNR,0.672 ± 0.053
24,FTLCPARALSLC,0.552 ± 0.024
25,FTLRFGYISDLD,0.736 ± 0.21
